± gives the standard deviation of the averaged measurements.
B1: library; numbered along this chain (parent)
chain: MNIQIGELAKRTACPVVTIRFYEQEGLLPPPGRSRGNFRLYGEEHVERLQFIRHCRSLDMPLSDVRTLLSYRKRPDQDCGEVNMLLDEHIRQVESRIGALLELKHHLVELREACSGARPAQSCGILQGLSDCVCDTRGTTAHPSD

Experiments:
[1] = variants of: B1; test: sfGFP reporter fluorescence (15 h) (µM FITC); higher = higher leak; conditions: library round: Round 0; ligand: none
How it was run: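 An Echo normalized PCR-made linear PbrR templates to 5 nM and assembled 1 μL reactions in BL21 Star (DE3) PANOx-SP extract carrying the pPbrR-sfGFP reporter plasmid and 30 μg/mL GamS. Reactions received 1 µM lead chloride, 30 µM zinc acetate or no metal and stood 15 hr at 30 °C. Fluorescence at 485/528 nm (Synergy Neo2) was converted with FITC standard curves made in 50 mM sodium borate pH 8.5. Endpoint sfGFP signal is given in µM FITC, from up to three biological replicates.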

[2] = variants of: B1; test: sfGFP reporter fluorescence (15 h) (µM FITC); higher = stronger transcriptional activation; conditions: library round: Round 0
Experimental: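 Cell-free (BL21 Star DE3 extract, PANOx-SP) biosensing: 1 µL Echo-assembled reactions with linear PbrR variant templates (5 nM) and pPbrR-sfGFP reporter, with 1 µM Pb (lead chloride), 30 µM Zn (zinc acetate) or no ligand; endpoint sfGFP fluorescence after 15 h at 30 °C, calibrated as µM FITC. Round 0 library (alanine scan, site saturation, combinatorial) of PbrR from Cupriavidus metallidurans; 2 biological replicates.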

Variant	sfGFP reporter fluorescence [1]	sfGFP reporter fluorescence ([2]; ligand: 1 µM Pb)	sfGFP reporter fluorescence ([2]; ligand: 30 µM Zn)
MNIQIGELAKRTACPLVTIRFYEQEGLLPPPGRSRGNFRLYGEEHVERLQFIRHCRSLDMPLSDVRTLLSYRKRPDQDCGEVNMLLDEHIRQVESRIGALLELKHHLVELREACSGARPAQSCGILQGLSDCVCDTRGTTAHPSD [V16L]	0.06249 ± 0.00026	0.0825 ± 0.0021	0.56 ± 0.022
MNIQIGELAKRTACPMVTIRFYEQEGLLPPPGRSRGNFRLYGEEHVERLQFIRHCRSLDMPLSDVRTLLSYRKRPDQDCGEVNMLLDEHIRQVESRIGALLELKHHLVELREACSGARPAQSCGILQGLSDCVCDTRGTTAHPSD [V16M]	0.0647 ± 0.0029	0.099 ± 0.0052	0.9379 ± 0.0042
MNIQIGELAKRTACPNVTIRFYEQEGLLPPPGRSRGNFRLYGEEHVERLQFIRHCRSLDMPLSDVRTLLSYRKRPDQDCGEVNMLLDEHIRQVESRIGALLELKHHLVELREACSGARPAQSCGILQGLSDCVCDTRGTTAHPSD [V16N]	0.0643 ± 0.0013	0.08686 ± 0.00052	0.487 ± 0.011
MNIQIGELAKRTACPPVTIRFYEQEGLLPPPGRSRGNFRLYGEEHVERLQFIRHCRSLDMPLSDVRTLLSYRKRPDQDCGEVNMLLDEHIRQVESRIGALLELKHHLVELREACSGARPAQSCGILQGLSDCVCDTRGTTAHPSD [V16P]	0.06102 ± 0.00026	0.08796 ± 0.00052	1.53 ± 0.031
MNIQIGELAKRTACPQVTIRFYEQEGLLPPPGRSRGNFRLYGEEHVERLQFIRHCRSLDMPLSDVRTLLSYRKRPDQDCGEVNMLLDEHIRQVESRIGALLELKHHLVELREACSGARPAQSCGILQGLSDCVCDTRGTTAHPSD [V16Q]	0.0663 ± 0.0031	0.112 ± 0.0083	1.425 ± 0.0039
MNIQIGELAKRTACPRVTIRFYEQEGLLPPPGRSRGNFRLYGEEHVERLQFIRHCRSLDMPLSDVRTLLSYRKRPDQDCGEVNMLLDEHIRQVESRIGALLELKHHLVELREACSGARPAQSCGILQGLSDCVCDTRGTTAHPSD [V16R]	0.0671 ± 0.001	0.132 ± 0.0057	2.03 ± 0.3
MNIQIGELAKRTACPSVTIRFYEQEGLLPPPGRSRGNFRLYGEEHVERLQFIRHCRSLDMPLSDVRTLLSYRKRPDQDCGEVNMLLDEHIRQVESRIGALLELKHHLVELREACSGARPAQSCGILQGLSDCVCDTRGTTAHPSD [V16S]	0.06707 ± 0.00052	0.1145 ± 0.00026	1.22 ± 0.028
